Data set [1] deals with PTP-σ_D1D2 (human), Trx-His6-tagged (human). As to the kind of experiment: ITC; VP-ITC at 25 °C; 50 mM Tris-HCl pH 7.5, 100 mM NaCl, 1 mM EDTA, 1 mM DTT; liprin-α fragments at 200 μM injected into LAR-RPTP fragments at 20 μM; one-site binding model; N-terminal tags kept. Background: ITC needs no label: the signal is the heat of the interaction.
The target in data set [2] is PTP-δ_D1D2 (human), Trx-His6-tagged (human). The description is as above.
Data set [3] deals with the molecule itself. As to the kind of experiment: cell-based or functional assay.
In data set [4] the target is T1, liprin-α2_SAM123 (C-terminal SAM repeats of human liprin-α2), Trx-His6-tagged (human, UniProt O75334 866-1193).
T1 construct: liprin-α2, human, the C-terminal three SAM domains (SAM123); source: E. coli Rosetta BL21(DE3), purified (Ni-NTA, Superdex-200); not shown: Trx, N-terminal, kept; His6, N-terminal, kept
As to the kind of experiment: ITC; VP-ITC at 25 °C; 50 mM Tris-HCl pH 7.5, 100 mM NaCl, 1 mM EDTA, 1 mM DTT; liprin-α fragments at 200 μM injected into LAR-RPTP fragments at 20 μM; one-site binding model; N-terminal tags kept. Conditions: both partners purified.

As a reminder, the Kd is the concentration at which binding is half-saturated. Read a high Kd as a looser complex.

Chain of PTP-δ_D1D2 (human), Trx-His6-tagged (human) (P23468 1357-1912, stated change not applied): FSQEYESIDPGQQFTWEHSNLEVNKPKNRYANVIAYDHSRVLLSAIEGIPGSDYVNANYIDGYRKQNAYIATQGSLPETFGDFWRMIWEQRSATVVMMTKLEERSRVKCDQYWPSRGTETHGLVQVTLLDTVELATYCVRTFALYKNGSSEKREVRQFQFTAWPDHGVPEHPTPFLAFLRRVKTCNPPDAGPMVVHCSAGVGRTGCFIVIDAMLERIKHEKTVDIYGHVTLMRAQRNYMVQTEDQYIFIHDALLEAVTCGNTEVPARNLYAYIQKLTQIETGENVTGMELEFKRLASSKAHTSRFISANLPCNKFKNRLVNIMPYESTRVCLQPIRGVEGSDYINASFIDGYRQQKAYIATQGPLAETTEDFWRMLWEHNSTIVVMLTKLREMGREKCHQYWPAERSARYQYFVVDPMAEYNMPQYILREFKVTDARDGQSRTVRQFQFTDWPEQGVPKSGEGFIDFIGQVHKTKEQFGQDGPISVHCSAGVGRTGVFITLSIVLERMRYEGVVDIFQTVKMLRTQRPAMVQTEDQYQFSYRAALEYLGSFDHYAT
Chain of PTP-σ_D1D2 (human), Trx-His6-tagged (human) (Q13332 1393-1948): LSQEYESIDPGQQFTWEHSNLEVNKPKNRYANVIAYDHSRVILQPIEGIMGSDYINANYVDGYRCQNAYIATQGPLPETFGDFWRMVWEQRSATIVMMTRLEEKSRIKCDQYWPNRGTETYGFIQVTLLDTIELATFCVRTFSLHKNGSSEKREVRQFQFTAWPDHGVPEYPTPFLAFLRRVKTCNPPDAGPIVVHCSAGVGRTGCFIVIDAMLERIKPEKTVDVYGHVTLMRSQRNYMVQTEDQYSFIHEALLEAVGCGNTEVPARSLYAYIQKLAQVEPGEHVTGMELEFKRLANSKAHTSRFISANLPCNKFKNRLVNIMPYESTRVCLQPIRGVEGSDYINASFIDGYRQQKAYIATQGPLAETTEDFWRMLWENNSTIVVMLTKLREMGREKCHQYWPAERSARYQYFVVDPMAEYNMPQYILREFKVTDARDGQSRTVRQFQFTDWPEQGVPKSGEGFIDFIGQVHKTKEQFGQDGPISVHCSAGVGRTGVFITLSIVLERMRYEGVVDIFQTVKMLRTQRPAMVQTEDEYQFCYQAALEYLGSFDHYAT
T1 sequence (O75334 866-1193): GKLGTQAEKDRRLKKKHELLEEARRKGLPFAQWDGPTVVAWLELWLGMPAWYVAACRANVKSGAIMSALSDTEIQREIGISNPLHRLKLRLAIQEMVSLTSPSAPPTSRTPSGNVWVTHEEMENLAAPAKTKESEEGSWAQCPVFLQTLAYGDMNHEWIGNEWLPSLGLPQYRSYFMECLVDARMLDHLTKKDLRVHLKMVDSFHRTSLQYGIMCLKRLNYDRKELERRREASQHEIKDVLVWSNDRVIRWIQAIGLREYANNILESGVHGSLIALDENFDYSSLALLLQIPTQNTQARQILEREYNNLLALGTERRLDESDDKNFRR

In the case of “α2_SAM123ΔInsertion (liprin-α2_SAM123 with the insertion loop connecting SAM1 and SAM2 deleted) (from UniProt O75334 866-1193) (domain or fragment)”, the Kd in data set [1] stood at 2.4 µM; in data set [2], 6.4 µM.

B1: LAR_D1D2 L1539C/T1593C double-cysteine mutant (domain or fragment, human)
chain: IPITDLADNIERLKANDGLKFSQEYESIDPGQQFTWENSNLEVNKPKNRYANVIAYDHSRVILTSIDGVPGSDYINANYIDGYRKQNAYIATQGPLPETMGDFWRMVWEQRTATVVMMTRLEEKSRVKCDQYWPARGTETCGLIQVTLLDTVELATYTVRTFALHKSGSSEKRELRQFQFMAWPDHGVPEYPTPILAFLRRVKACNPCDAGPMVVHCSAGVGRTGCFIVIDAMLERMKHEKTVDIYGHVTCMRSQRNYMVQCEDQYVFIHEALLEAATCGHTEVPARNLYAHIQKLGQVPPGESVTAMELEFKLLASSKAHTSRFISANLPCNKFKNRLVNIMPYELTRVCLQPIRGVEGSDYINASFLDGYRQQKAYIATQGPLAESTEDFWRMLWEHNSTIIVMLTKLREMGREKCHQYWPAERSARYQYFVVDPMAEYNMPQYILREFKVTDARDGQSRTIRQFQFTDWPEQGVPKTGEGFIDFIGQVHKTKEQFGQDGPITVHCSAGVGRTGVFITLSIVLERMRYEGVVDMFQTVKTLRTQRPAMVQTEDQYQLCYRAALEYLGSFDHYAT
modifications: intermolecular disulfide bridges between the introduced cysteines (without reducing reagents)
As for B1, in data set [3], the “in vitro phosphatase activity of the LAR_D1D2 dimer relative to the monomer fraction, with 2 mM DTT in the reaction buffer” value is roughly 80% and the “in vitro phosphatase activity of the disulfide-linked LAR_D1D2 dimer relative to the monomeric mutant, reaction buffer without DTT” value was roughly 40%.

B2: LAR_D2 (D2 domain of human LAR), His6-SUMO-tagged (domain or fragment, UniProt P10586 1620-1907, looked up)
chain: LYAHIQKLGQVPPGESVTAMELEFKLLASSKAHTSRFISANLPCNKFKNRLVNIMPYELTRVCLQPIRGVEGSDYINASFLDGYRQQKAYIATQGPLAESTEDFWRMLWEHNSTIIVMLTKLREMGREKCHQYWPAERSARYQYFVVDPMAEYNMPQYILREFKVTDARDGQSRTIRQFQFTDWPEQGVPKTGEGFIDFIGQVHKTKEQFGQDGPITVHCSAGVGRTGVFITLSIVLERMRYEGVVDMFQTVKTLRTQRPAMVQTEDQYQLCYRAALEYLGSFDHYAT
notes: also called D2 domain alone; source: E. coli Rosetta BL21(DE3), purified (Ni-NTA, Superdex-200); not shown: His6, N-terminal, kept; SUMO, N-terminal, kept
B2: the Kd in data set [4] is 14 ± 1 µM.
